The source of these data is article PMC3288515.

Like-named read-outs stand apart in the source and are kept apart here.

Assay in all cases: EMSA
Data set [1] deals with T1, STAT5 (STAT5a cDNA used for the retroviral construct) (UniProt P42230 1-793).
Data set [2] has as its target T2, PU.1 (UniProt P17433 1-272).
The target in data set [3] is T1, STAT5 (STAT5a cDNA used for the …). This is another data set of the same source.
The target in data set [4] is T2, PU.1. This is another data set of the same source.

T1 sequence (P42230 whole entry): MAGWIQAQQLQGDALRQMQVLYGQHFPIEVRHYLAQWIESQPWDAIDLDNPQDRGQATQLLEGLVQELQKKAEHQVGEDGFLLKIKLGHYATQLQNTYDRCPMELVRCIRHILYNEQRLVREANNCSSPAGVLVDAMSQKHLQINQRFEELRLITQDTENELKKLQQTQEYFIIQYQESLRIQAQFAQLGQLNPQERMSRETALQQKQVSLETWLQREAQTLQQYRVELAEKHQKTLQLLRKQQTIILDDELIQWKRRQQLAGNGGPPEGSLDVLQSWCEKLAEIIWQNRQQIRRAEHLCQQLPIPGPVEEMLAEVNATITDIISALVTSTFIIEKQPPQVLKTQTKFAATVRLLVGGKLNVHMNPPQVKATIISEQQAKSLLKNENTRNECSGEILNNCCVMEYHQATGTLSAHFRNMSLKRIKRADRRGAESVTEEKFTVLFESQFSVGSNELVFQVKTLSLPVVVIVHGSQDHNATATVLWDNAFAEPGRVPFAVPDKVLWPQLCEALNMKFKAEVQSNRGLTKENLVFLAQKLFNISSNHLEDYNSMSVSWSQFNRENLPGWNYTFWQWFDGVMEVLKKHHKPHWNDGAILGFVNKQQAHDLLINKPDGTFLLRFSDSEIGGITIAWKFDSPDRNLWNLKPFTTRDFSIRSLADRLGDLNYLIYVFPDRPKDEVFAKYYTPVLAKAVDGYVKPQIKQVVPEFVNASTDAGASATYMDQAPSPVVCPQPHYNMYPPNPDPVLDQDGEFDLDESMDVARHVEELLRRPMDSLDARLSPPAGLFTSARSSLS

B1: κE3' PU.1-STAT5 probe (dsDNA)
DNA 1: CTTTGAGGAACTGAAAACAGAACCT
DNA 2: AGGTTCTGTTTTCAGTTCCTCAAAG
With B1, the binding result (in data set [1]; with PU.1 [2]) was “binds” throughout.

B2: SV40 PU.1 probe (dsDNA)
DNA 1: TGAAATAACCTCTGAAAGAGGAACTTGGTTAGGTA
DNA 2: TACCTAACCAAGTTCCTCTTTCAGAGGTTATTTCA
With B2, the binding result in data set [3] is recorded as “no binding”; in the data set with PU.1 [4], “binds”.
